Measured values published in article PMC5123574, “Redox cofactors insertion in prokaryotic molybdoenzymes occurs via a conserved folding mechanism” (Scientific Reports, 2016).
Positions count from the first letter of the chain named. Numbers in names are those of the source.

B1: holoNarGH, Moco-loaded soluble catalytic NarGH complex of nitrate reductase A (complex, E. coli)
chain 1: MSKFLDRFRYFKQKGETFADGHGQLLNTNRDWEDGYRQRWQHDKIVRSTHGVNCTGSCSWKIYVKNGLVTWETQQTDYPRTRPDLPNHEPRGCPRGASYSWYLYSANRLKYPMMRKRLMKMWREAKALHSDPVEAWASIIEDADKAKSFKQARGRGGFVRSSWQEVNELIAASNVYTIKNYGPDRVAGFSPIPAMSMVSYASGARYLSLIGGTCLSFYDWYCDLPPASPQTWGEQTDVPESADWYNSSYIIAWGSNVPQTRTPDAHFFTEVRYKGTKTVAVTPDYAEIAKLCDLWLAPKQGTDAAMALAMGHVMLREFHLDNPSQYFTDYVRRYTDMPMLVMLEERDGYYAAGRMLRAADLVDALGQENNPEWKTVAFNTNGEMVAPNGSIGFRWGEKGKWNLEQRDGKTGEETELQLSLLGSQDEIAEVGFPYFGGDGTEHFNKVELENVLLHKLPVKRLQLADGSTALVTTVYDLTLANYGLERGLNDVNCATSYDDVKAYTPAWAEQITGVSRSQIIRIAREFADNADKTHGRSMIIVGAGLNHWYHLDMNYRGLINMLIFCGCVGQSGGGWAHYVGQEKLRPQTGWQPLAFALDWQRPARHMNSTSYFYNHSSQWRYETVTAEELLSPMADKSRYTGHLIDFNVRAERMGWLPSAPQLGTNPLTIAGEAEKAGMNPVDYTVKSLKEGSIRFAAEQPENGKNHPRNLFIWRSNLLGSSGKGHEFMLKYLLGTEHGIQGKDLGQQGGVKPEEVDWQDNGLEGKLDLVVTLDFRLSSTCLYSDIILPTATWYEKDDMNTSDMHPFIHPLSAAVDPAWEAKSDWEIYKAIAKKFSEVCVGHLGKETDIVTLPIQHDSAAELAQPLDVKDWKKGECDLIPGKTAPHIMVVERDYPATYERFTSIGPLMEKIGNGGKGIAWNTQSEMDLLRKLNYTKAEGPAKGQPMLNTAIDAAEMILTLAPETNGQVAVKAWAALSEFTGRDHTHLALNKEDEKIRFRDIQAQPRKIISSPTWSGLEDEHVSYNAGYTNVHELIPWRTLSGRQQLYQDHQWMRDFGESLLVYRPPIDTRSVKEVIGQKSNGNQEKALNFLTPHQKWGIHSTYSDNLLMLTLGRGGPVVWLSEADAKDLGIADNDWIEVFNSNGALTARAVVSQRVPAGMTMMYHAQERIVNLPGSEITQQRGGIHNSVTRITPKPTHMIGGYAHLAYGFNYYGTVGSNRDEFVVVRKMKNIDWLDGEGNDQVQESVK
chain 2: MKIRSQVGMVLNLDKCIGCHTCSVTCKNVWTSREGVEYAWFNNVETKPGQGFPTDWENQEKYKGGWIRKINGKLQPRMGNRAMLLGKIFANPHLPGIDDYYEPFDFDYQNLHTAPEGSKSQPIARPRSLITGERMAKIEKGPNWEDDLGGEFDKLAKDKNFDNIQKAMYSQFENTFMMYLPRLCEHCLNPACVATCPSGAIYKREEDGIVLIDQDKCRGWRMCITGCPYKKIYFNWKSGKSEKCIFCYPRIEAGQPTVCSETCVGRIRYLGVLLYDADAIERAASTENEKDLYQRQLDVFLDPNDPKVIEQAIKDGIPLSVIEAAQQSPVYKMAMEWKLALPLHPEYRTLPMVWYVPPLSPIQSAADAGELGSNGILPDVESLRIPVQYLANLLTAGDTKPVLRALKRMLAMRHYKRAETVDGKVDTRALEEVGLTEAQAQEMYRYLAIANYEDRFVVPSSHRELAREAFPEKNGCGFTFGDGCHGSDTKFNLFNSRRIDAIDVTSKTEPHP
notes: NarG, nitrate-reducing catalytic subunit of respiratory nitrate reductase A, E. coli; carries Mo-bisPGD and the [4Fe-4S] cluster FS0; Printed residue numbers (Arg108, Glu794) follow the crystal structure 1q16; NarH, electron-transfer subunit of respiratory nitrate reductase A, E. coli; carries four Fe/S clusters (FS1-4); The unit written here is the NarGH heterodimer (~200 kDa), which is trimeric …
B2: apoNarGH, cofactor-less NarGH complex produced in absence of NarJ (complex, E. coli)
chain 1: B1 chain 1
chain 2: B1 chain 2
notes: NarG, nitrate-reducing catalytic subunit of respiratory nitrate reductase A, E. coli; here devoid of FS0 and Moco; Printed residue numbers follow the crystal structure 1q16; NarH, electron-transfer subunit of respiratory nitrate reductase A, E. coli; The unit is the NarGH heterodimer; His6 put on NarH from the plasmid name; also called Moco-less His-tagged NarGH complex
B3: NarG_(R108A)H_(His6) complex (complex, E. coli)
chain 1: B1 chain 1 with R108A
chain 2: B1 chain 2
notes: NarG, catalytic subunit of respiratory nitrate reductase A, E. coli, with R108A; NarH, electron-transfer subunit of respiratory nitrate reductase A, E. coli; The unit is the NarGH heterodimer; His6 put on NarH from the plasmid name; also called R108A NarGH; NarGH variant; source: E. coli with pNarG_(R108A)H_(His6)J, purified

Target: the molecule itself
Experiment: SAXS; SEC-coupled SAXS (SWING beamline, SOLEIL); ~25 mg/mL in Tris-HCl 40 mM pH 7.6, 8% glycerol, online Agilent BioSEC-3 300 Å column; Mw from SAXSMoW, volume from DAMMIF; NarGH heterodimers into a trimer

Row | Protein | stoichiometry N | binding result
1 | B1 | 3 | 
2 | B2 | 3 | 
3 | B3 |  | binds
